In the supplement of paper PMC11246515:
± gives the standard deviation of the averaged measurements.

Assay: total protein half-life in vivo (active degradation + dilution); higher = more stable protein
[1] = E. coli NCM3722 delta-clpP delta-lon delta-hslV, growth: N-lim chemostat, doubling time 6 h
[2] = E. coli NCM3722 delta-clpP, growth: N-lim chemostat, doubling time 6 h
[3] = E. coli NCM3722 delta-hslV, growth: N-lim chemostat, doubling time 6 h
[4] = E. coli NCM3722 delta-lon, growth: N-lim chemostat, doubling time 6 h
[5] = E. coli NCM3722 delta-smpB, growth: N-lim chemostat, doubling time 6 h
[6] = wild type E. coli NCM3722, growth: C-lim chemostat, doubling time 3 h
[7] = wild type E. coli NCM3722, growth: C-lim chemostat, doubling time 6 h
[8] = wild type E. coli NCM3722, growth: C-lim chemostat, doubling time 12 h
[9] = wild type E. coli NCM3722, growth: N-lim chemostat, doubling time 6 h
[10] = wild type E. coli NCM3722, growth: N-lim chemostat, doubling time 12 h
[11] = wild type E. coli NCM3722, growth: P-lim chemostat, doubling time 6 h
[12] = wild type E. coli NCM3722, growth: P-lim chemostat, doubling time 12 h

Row | Sequence | total protein half-life in vivo [1] | total protein half-life in vivo [2] | total protein half-life in vivo [3] | total protein half-life in vivo [4] | total protein half-life in vivo [5] | total protein half-life in vivo [6] | total protein half-life in vivo [7] | total protein half-life in vivo [8] | total protein half-life in vivo [9] | total protein half-life in vivo [10] | total protein half-life in vivo [11] | total protein half-life in vivo [12]
1 | MTITKLAWRDLVPDTDSYQEIFAQPHLIDENDPLFSDTQPRLQFALEQLLHTRASSSFMLAKAPEESEYLNLIANAARTLQSDAGQLVGGHYEVSGHSIRLRHAVSADDNFATLTQVVAADWVEAEQLFGCLRQFNGDITLQPGLVHQANGGILIISLRTLLAQPLLWMRLKNIVNRERFDWVAFDESRPLPVSVPSMPLKLKVILVGERESLADFQEMEPELSEQAIYSEFEDTLQIVDAESVTQWCRWVTFTARHNHLPAPGADAWPILIREAARYTGEQETLPLSPQWILRQCKEVASLCDGDTFSGEQLNLMLQQREWREGFLAERMQDEILQEQILIETEGERIGQINALSVIEFPGHPRAFGEPSRISCVVHIGDGEFTDIERKAELGGNIHAKGMMIMQAFLMSELQLEQQIPFSASLTFEQSYSEVDGDSASMAELCALISALADVPVNQSIAITGSVDQFGRAQPVGGLNEKIEGFFAICQQRELTGKQGVIIPTANVRHLSLHSELVKAVEEGKFTIWAVDDVTDALPLLLNLVWDGEGQTTLMQTIQERIAQASQQEGRHRFPWPLRWLNWFIPN | 6.81 ± 0.57 h | 6.24 ± 0.11 h | 7.24 ± 1.1 h | 6 ± 0.53 h | 6.58 ± 0.43 h | 3.017 ± 0.024 h | 5.99 ± 0.54 h | 9.75 ± 2.2 h | 6.17 ± 0.21 h | 13.7 ± 1.1 h | 6.4 ± 0.075 h | 12.6 ± 1.4 h
2 | MFEIHPVKKVSVVIPVYNEQESLPELIRRTTTACESLGKEYEILLIDDGSSDNSAHMLVEASQAENSHIVSILLNRNYGQHSAIMAGFSHVTGDLIITLDADLQNPPEEIPRLVAKADEGYDVVGTVRQNRQDSWFRKTASKMINRLIQRTTGKAMGDYGCMLRAYRRHIVDAMLHCHERSTFIPILANIFARRAIEIPVHHAEREFGESKYSFMRLINLMYDLVTCLTTTPLRMLSLLGSIIAIGGFSIAVLLVILRLTFGPQWAAEGVFMLFAVLFTFIGAQFIGMGLLGEYIGRIYTDVRARPRYFVQQVIRPSSKENE | 5.758 ± 0.026 h | – | 6.356 ± 0.027 h | 6.156 ± 0.045 h | 6.14 ± 0.12 h | 2.84 ± 0.4 h | 6.77 ± 1.7 h | 11.6 ± 0.56 h | 6.21 ± 0.57 h | 12.6 ± 0.58 h | 6.08 ± 0.52 h | 12.1 ± 0.46 h
3 | MSTIIMDLCSYTRLGLTGYLLSRGVKKREINDIETVDDLAIACDSQRPSVVFINEDCFIHDASNSQRIKLIINQHPNTLFIVFMAIANVHFDEYLLVRKNLLISSKSIKPESLDDILGDILKKETTITSFLNMPTLSLSRTESSMLRMWMAGQGTIQISDQMNIKAKTVSSHKGNIKRKIKTHNKQVIYHVVRLTDNVTNGIFVNMR [P0DMC9] | 5.4 ± 0.66 h | – | – | 1 ± 0.029 h | 1.51 ± 0.036 h | – | – | – | – | – | – | –
4 | MVTLYGIKNCDTIKKARRWLEANNIDYRFHDYRVDGLDSELLNDFINELGWEALLNTRGTTWRKLDETTRNKITDAASAAALMTEMPAIIKRPLLCVPGKPMLLGFSDSSYQQFFHEV | 5.94 ± 0.23 h | 5.95 ± 0.25 h | – | – | 5.87 ± 1.3 h | 3.07 ± 0.16 h | 6.1 ± 0.65 h | 9.79 ± 1.3 h | > 8 h | 8.47 h | 6.07 h | 11.3 ± 0.18 h
5 | MSEKHPGPLVVEGKLTDAERMKHESNYLRGTIAEDLNDGLTGGFKGDNFLLIRFHGMYQQDDRDIRAERAEQKLEPRHAMLLRCRLPGGVITTKQWQAIDKFAGENTIYGSIRLTNRQTFQFHGILKKNVKPVHQMLHSVGLDALATANDMNRNVLCTSNPYESQLHAEAYEWAKKISEHLLPRTRAYAEIWLDQEKVATTDEEPILGQTYLPRKFKTTVVIPPQNDIDLHANDMNFVAIAENGKLVGFNLLVGGGLSIEHGNKKTYARTASEFGYLPLEHTLAVAEAVVTTQRDWGNRTDRKNAKTKYTLERVGVETFKAEVERRAGIKFEPIRPYEFTGRGDRIGWVKGIDDNWHLTLFIENGRILDYPARPLKTGLLEIAKIHKGDFRITANQNLIIAGVPESEKAKIEKIAKESGLMNAVTPQRENSMACVSFPTCPLAMAEAERFLPSFIDNIDNLMAKHGVSDEHIVMRVTGCPNGCGRAMLAEVGLVGKAPGRYNLHLGGNRIGTRIPRMYKENITEPEILASLDELIGRWAKEREAGEGFGDFTVRAGIIRPVLDPARDLWD | 4.99 ± 0.69 h | 3.79 ± 0.29 h | 2.52 ± 0.056 h | 3.07 ± 0.14 h | 2.55 ± 0.1 h | 2.55 ± 0.13 h | 4.1634 ± 0.0008 h | 5.98 ± 0.51 h | 2.82 ± 0.28 h | 3.73 ± 0.062 h | 3.91 ± 0.24 h | 6.82 ± 0.1 h
6 | MERLLIVNADDFGLSKGQNYGIIEACRNGIVTSTTALVNGQAIDHAVQLSRDEPSLAIGMHFVLTMGKPLTAMPGLTRDGVLGKWIWQLAEEDALPLEEITQELVSQYLRFIELFGRKPTHLDSHHHVHMFPQIFPIVARFAAEQGIALRADRQMAFDLPVNLRTTQGFSSAFYGEEISESLFLQVLDDAGHRGDRSLEVMCHPAFIDNTIRQSAYCFPRLTELDVLTSASLKGAIAQRGYRLGSYRDV | – | 3.19 ± 0.45 h | 3.38 h | 3.55 ± 0.42 h | 2.945 ± 0.014 h | 2.86 ± 0.21 h | 4.51 ± 0.39 h | 7.9 ± 0.51 h | 3.27 ± 0.43 h | 4.74 ± 0.26 h | 5.12 ± 0.14 h | 10.1 ± 0.26 h
7 | MQDAAPRLTFTLRDEERLMMKIGVFVPIGNNGWLISTHAPQYMPTFELNKAIVQKAEHYHFDFALSMIKLRGFGGKTEFWDHNLESFTLMAGLAAVTSRIQIYATAATLTLPPAIVARMAATIDSISGGRFGVNLVTGWQKPEYEQMGIWPGDDYFSRRYDYLTEYVQVLRDLWGTGKSDFKGDFFTMNDCRVSPQPSVPMKVICAGQSDAGMAFSARYADFNFCFGKGVNTPTAFAPTAARMKQAAEQTGRDVGSYVLFMVIADETDDAARAKWEHYKAGADEEALSWLTEQSQKDTRSGTDTNVRQMADPTSAVNINMGTLVGSYASVARMLDEVASVPGAEGVLLTFDDFLSGIETFGERIQPLMQCRAHLPALTQEVA | 5.26 ± 0.37 h | 3.06 ± 0.12 h | 0.715 ± 0.26 h | 0.661 ± 0.0067 h | 0.481 ± 0.11 h | – | – | – | 0.658 ± 0.16 h | 0.664 ± 0.16 h | – | –
8 | MLDKLRSRIVHLGPSLLSVPVKLTPFALKRQVLEQVLSWQFRQALDDGELEFLEGRWLSIHVRDIDLQWFTSVVNGKLVVSQNAQADVSFSADASDLLMIAARKQDPDTLFFQRRLVIEGDTELGLYVKNLMDAIELEQMPKALRMMLLQLADFVEAGMKTAPETKQTSVGEPC | 3.71 ± 1.3 h | 2.5 h | – | – | 0.825 ± 0.014 h | 0.352 ± 0.048 h | – | – | – | – | 0.825 h | –
